Reference: PMC4538837, “Structural basis for substrate recognition and processive cleavage mechanisms of the trimeric exonuclease PhoExo I”
Each block holds one molecule with its values, some of them ahead of it.

What was measured:
[1] = target: PhoExo I-CHis D80N mutant (Pyrococcus horikoshii OT3); experiment: crystal structure; PhoExo I-CHis D80N cocrystallised with 7-nt ssDNAs (poly-dA, poly-dC, poly-dT; poly-dT crystal also soaked with 0.1 M MgCl2); 0.1 M MES pH 5.6-5.7, 12-14% PEG6000, 1 M LiCl
[2] = target: PhoExo I (native, untagged) (Pyrococcus horikoshii OT3); experiment: crystal structure; substrate-free native PhoExo I, three crystal forms (crystals 1-3); sitting-drop vapour diffusion at 20°C; trimer in the asymmetric unit (crystals 1, 2) or by the crystallographic 3-fold axis (crystal 3)
[3] = target: C-terminal 4×His-tagged PhoExo I (PhoExo I-CHis) (Pyrococcus horikoshii OT3); experiment: SEC; gel filtration on Superdex 200 HR 10/30, 10 mM Tris HCl pH 8.0, 200 mM NaCl; size estimated against standard proteins
[4] = target: T1, PhoExo I-CHis (wild type) (Pyrococcus horikoshii OT3, UniProt A0A060P168 1-229); experiment: EMSA; 0.1 mM EDTA, no Mg2+; stronger than for the DNA of same sequence; EMSA: 25 mM Hepes-NaOH pH 7.5, 50 mM NaCl, 0.1 mM EDTA, 0.1 mg/ml BSA, 5 nM probe, 0-1600 nM trimer, 5 min 55 C, then 0.05% glutaraldehyde 10 min at room temperature; 7.5% native PAGE in TBE; settings: protein: recombinant; tags: C-terminal 4xHis; chain copies: 3; label: 5'-32P; single strand
T1 sequence (A0A060P168 entry or part of it): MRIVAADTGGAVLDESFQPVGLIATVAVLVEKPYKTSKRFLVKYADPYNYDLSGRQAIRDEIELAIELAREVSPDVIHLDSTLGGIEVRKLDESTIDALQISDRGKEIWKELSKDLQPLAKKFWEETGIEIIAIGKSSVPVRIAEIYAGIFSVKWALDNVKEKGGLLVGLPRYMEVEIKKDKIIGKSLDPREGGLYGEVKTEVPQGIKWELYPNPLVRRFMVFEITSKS

[5] = target: T1, PhoExo I-CHis (wild type); experiment: EMSA; 0.1 mM EDTA, no Mg2+; affinity lower than for RNA; EMSA: 25 mM Hepes-NaOH pH 7.5, 50 mM NaCl, 0.1 mM EDTA, 0.1 mg/ml BSA, 5 nM probe, 0-1600 nM trimer, 5 min 55 C, then 0.05% glutaraldehyde 10 min at room temperature; 7.5% native PAGE in TBE; settings: protein: recombinant; tags: C-terminal 4xHis; chain copies: 3; label: 5'-32P; single strand

stoichiometry N [1]: 3
Molecule: PhoExo I-CHis D80N mutant (enzyme)

stoichiometry N [2]: 3
Molecule: PhoExo I (native, untagged) (enzyme)

The next lines start with the molecule.

Molecule: C-terminal 4×His-tagged PhoExo I (PhoExo I-CHis) (enzyme)
stoichiometry N [3]: 3

Molecule: AGCUAUGACCAUGAUUACGAAUUGCUU (ssRNA) [27-nt RNA]
binding result [4]: binds

Molecule: AGCTATGACCATGATTACGAATTGCTT (ssDNA) [27-nt DNA]
binding result [5]: binds
